# Experimental data taken from article PMC7588069.
# Target: GST fusion with the receptor interaction domains (RID) of NCoRδ (region equivalent to amino acids 1817–2453 of NCoRω)
# Experiment: pull-down; GST fusion protein (~50 ng) immobilised on ~10 μl glutathione-agarose; 35S-radiolabeled in vitro translated nuclear receptor (2–5 μl TnT product) in 120 μl HEMG buffer (4 mM HEPES pH 7.8, 0.2 mM EDTA, 5 mM MgCl2, 10% glycerol, 100 mM KCl, 0.1% Nonidet P-40, 1.5 mM DTT) with 10 mg/ml BSA; 3 hr at 4°C; eluted with 10 mM glutathione, SDS-PAGE, PhosphorImager
row,Molecule,relative binding to NCoRδ versus NCoRω (ratio (NCoRδ versus NCoRω))
1,Thyroid Hormone Receptor α (from UniProt P10827-2 1-410),0.42
2,"Peroxisome Proliferator Activated Receptor α (receptor, 35S-radiolabeled) MVDTESPLCPLSPLEAGDLESPLSEEFLQEMGNIQEISQSIGEDSSGSFGFTEYQYLGSCPGSDGSVITDTLSPASSPSSVTYPVVPGSVDESPSGALNIECRICGDKASGYHYGVHACEGCKGFFRRTIRLKLVYDKCDRSCKIQKKNRNKCQYCRFHKCLSVGMSHNAIRFGRMPRSEKAKLKAEILTCEHDIEDSETADLKSLAKRIYEAYLKNFNMNKVKARVILSGKASNNPPFVIHDMETLCMAEKTLVAKLVANGIQNKEAEVRIFHCCQCTSVETVTELTEFAKAIPGFANLDLNDQVTLLKYGVYEAIFAMLSSVMNKDGMLVAYGNGFITREFLKSLRKPFCDIMEPKFDFAMKFNALELDDSDISLFVAAIICCGDRPGLLNVGHIEKMQEGIVHVLRLHLQSNHPDDIFLFPKLLQKMADLRQLVTEHAQLVQIIKKTESDAALHPLLQEIYRDMY",0.79

# Second part, the molecule after the results:
row,relative binding to NCoRδ versus NCoRω (ratio (NCoRδ versus NCoRω)),Molecule
1,0.88,Peroxisome Proliferator Activated Receptor γ (from UniProt P37231 1-505)
2,0.35,"Farnesoid X Receptor (receptor, 35S-radiolabeled) MVMQFQGLENPIQISPHCSCTPSGFFMEMMSMKPAKGVLTEQVAGPLGQNLEVEPYSQYSNVQFPQVQPQISSSSYYSNLGFYPQQPEEWYSPGIYELRRMPAETLYQGETEVAEMPVTKKPRMGASAGRIKGDELCVVCGDRASGYHYNALTCEGCKGFFRRSITKNAVYKCKNGGNCVMDMYMRRKCQECRLRKCKEMGMLAECMYTGLLTEIQCKSKRLRKNVKQHADQTVNEDSEGRDLRQVTSTTKSCREKTELTPDQQTLLHFIMDSYNKQRMPQEITNKILKEEFSAEENFLILTEMATNHVQVLVEFTKKLPGFQTLDHEDQIALLKGSAVEAMFLRSAEIFNKKLPSGHSDLLEERIRNSGISDEYITPMFSFYKSIGELKMTQEEYALLTAIVILSPDRQYIKDREAVEKLQEPLLDVLQKLCKIHQPENPQHFACLLGRLTELRTFNHHHAEMLMSWRVNDHKFTPLLCEIWDVQ"
3,0.51,"Liver X Receptor α (receptor, 35S-radiolabeled) MSLWLGAPVPDIPPDSAVELWKPGAQDASSQAQGGSSCILREEARMPHSAGGTAGVGLEAAEPTALLTRAEPPSEPTEIRPQKRKKGPAPKMLGNELCSVCGDKASGFHYNVLSCEGCKGFFRRSVIKGAHYICHSGGHCPMDTYMRRKCQECRLRKCRQAGMREECVLSEEQIRLKKLKRQEEEQAHATSLPPRASSPPQILPQLSPEQLGMIEKLVAAQQQCNRRSFSDRLRVTPWPMAPDPHSREARQQRFAHFTELAIVSVQEIVDFAKQLPGFLQLSREDQIALLKTSAIEVMLLETSRRYNPGSESITFLKDFSYNREDFAKAGLQVEFINPIFEFSRAMNELQLNDAEFALLIAISIFSADRPNVQDQLQVERLQHTYVEALHAYVSIHHPHDRLMFPRMLMKLVSLRTLSSVHSEQVFALRLQDKKLPPLLSEIWDVHE"
